Drawing on paper PMC12170185, “Dynamic RNA binding and unfolding by nonsense-mediated mRNA decay factor UPF2”, this text covers binding result and Kd for 2 molecules.

For data set [1], the target named is UPF2 MIF4G-D3 (UniProt Q9HAU5 761-1054). The experiment in a line: EMSA; weak unquenched complex band; FA: 25 mM HEPES pH 7.45, 150 mM NaCl, 5% glycerol, 10 nM probe, temperature not stated; EMSA: 250 nM probe in 25 mM HEPES pH 7.45, 100 mM NaCl, 5% glycerol (protein dilution buffer 300 nM [sic] NaCl, 2 mM bME or 1 mM TCEP), 1 h on ice, gel at 4 C. Particulars: protein: recombinant; tags: C-terminal TEV site and His6; label: 5' HEX, 3' BHQ-1; hairpin with bulges.

The target of data set [2] is T1, UPF2L (UniProt Q9HAU5 121-1227). Kind of data set: fluorescence spectroscopy (unquenching); FA: 25 mM HEPES pH 7.45, 150 mM NaCl, 5% glycerol, 10 nM probe, temperature not stated; EMSA: 250 nM probe in 25 mM HEPES pH 7.45, 100 mM NaCl, 5% glycerol (protein dilution buffer 300 nM [sic] NaCl, 2 mM bME or 1 mM TCEP), 1 h on ice, gel at 4 C. The following applies: protein: recombinant; tags: C-terminal TEV site and His6; label: 5' HEX, 3' BHQ-1; hairpin with bulges.

Data set [3] concerns the target UPF2 MIF4G-D3;UPF3B (human?;human?, UniProt Q9HAU5;Q9BZI7 761-1054;41-262, |). The experiment in a line: EMSA; FA: 25 mM HEPES pH 7.45, 150 mM NaCl, 5% glycerol, 10 nM probe, temperature not stated; EMSA: 250 nM probe in 25 mM HEPES pH 7.45, 100 mM NaCl, 5% glycerol (protein dilution buffer 300 nM [sic] NaCl, 2 mM bME or 1 mM TCEP), 1 h on ice, gel at 4 C. Particulars: protein: recombinant;recombinant; tags: C-terminal TEV site and His6;; copies: 1;1; label: 5' HEX; hairpin with bulges.

Data set [4] has as its target T2, UPF1 (UniProt Q92900-2 115-914).
T2 sequence: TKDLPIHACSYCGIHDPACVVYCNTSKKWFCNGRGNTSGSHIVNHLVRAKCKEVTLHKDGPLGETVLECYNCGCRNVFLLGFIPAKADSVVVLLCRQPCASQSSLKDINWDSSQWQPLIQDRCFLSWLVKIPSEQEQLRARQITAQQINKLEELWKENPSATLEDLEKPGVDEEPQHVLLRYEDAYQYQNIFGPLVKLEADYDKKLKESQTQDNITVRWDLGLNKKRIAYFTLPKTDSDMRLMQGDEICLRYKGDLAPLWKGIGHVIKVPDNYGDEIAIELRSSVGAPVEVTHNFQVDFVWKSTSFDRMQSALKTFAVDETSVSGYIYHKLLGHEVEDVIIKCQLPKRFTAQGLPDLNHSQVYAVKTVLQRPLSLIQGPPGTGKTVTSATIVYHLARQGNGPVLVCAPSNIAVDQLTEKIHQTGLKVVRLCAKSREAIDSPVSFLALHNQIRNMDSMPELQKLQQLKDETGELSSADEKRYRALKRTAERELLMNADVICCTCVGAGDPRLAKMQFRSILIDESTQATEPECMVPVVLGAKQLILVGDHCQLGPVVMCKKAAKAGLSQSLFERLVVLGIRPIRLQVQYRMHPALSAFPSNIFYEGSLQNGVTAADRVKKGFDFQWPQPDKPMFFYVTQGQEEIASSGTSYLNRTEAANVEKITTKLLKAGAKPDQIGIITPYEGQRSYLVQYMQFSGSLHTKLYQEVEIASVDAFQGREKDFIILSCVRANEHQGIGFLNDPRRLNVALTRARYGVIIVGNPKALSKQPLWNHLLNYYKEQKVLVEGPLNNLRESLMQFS
Described as above. The following applies: protein: recombinant; label: 5' HEX; hairpin with bulges.

Data set [5] concerns the target UPF2L;UPF3B;UPF1 (human?;human?;human?, UniProt Q9HAU5;Q9BZI7;Q92900-2 121-1227;41-262;115-914, ||). Described as above. Particulars: protein: recombinant;recombinant;recombinant; tags: C-terminal TEV site and His6;;; copies: 1;1;1; label: 5' HEX; hairpin with bulges.
Data set [6] concerns the target T1, UPF2L. The experiment in a line: fluorescence anisotropy; FA: 25 mM HEPES pH 7.45, 150 mM NaCl, 5% glycerol, 10 nM probe, temperature not stated; EMSA: 250 nM probe in 25 mM HEPES pH 7.45, 100 mM NaCl, 5% glycerol (protein dilution buffer 300 nM [sic] NaCl, 2 mM bME or 1 mM TCEP), 1 h on ice, gel at 4 C. Particulars: protein: recombinant; tags: C-terminal TEV site and His6; label: 5' HEX; hairpin with bulges.

The target of data set [7] is T3, UPF3B (UniProt Q9BZI7 41-262).
T3 sequence: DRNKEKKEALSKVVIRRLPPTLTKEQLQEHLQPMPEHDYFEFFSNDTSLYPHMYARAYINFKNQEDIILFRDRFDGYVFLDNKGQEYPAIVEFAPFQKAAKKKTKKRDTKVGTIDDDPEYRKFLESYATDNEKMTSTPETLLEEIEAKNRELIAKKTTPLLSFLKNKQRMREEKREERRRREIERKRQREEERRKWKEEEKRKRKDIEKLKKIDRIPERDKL
Kind of data set: EMSA; excess UPF3B gives oligomers in well; FA: 25 mM HEPES pH 7.45, 150 mM NaCl, 5% glycerol, 10 nM probe, temperature not stated; EMSA: 250 nM probe in 25 mM HEPES pH 7.45, 100 mM NaCl, 5% glycerol (protein dilution buffer 300 nM [sic] NaCl, 2 mM bME or 1 mM TCEP), 1 h on ice, gel at 4 C. Particulars: protein: recombinant; label: 5' HEX; hairpin with bulges. In general terms: Mobility shift assays separate free from complexed probe on a gel.

In data set [8] the target is UPF2 MIF4G-D2 (UniProt Q9HAU5 455-757). Kind of data set: EMSA; no defined complex band, no remodeling; FA: 25 mM HEPES pH 7.45, 150 mM NaCl, 5% glycerol, 10 nM probe, temperature not stated; EMSA: 250 nM probe in 25 mM HEPES pH 7.45, 100 mM NaCl, 5% glycerol (protein dilution buffer 300 nM [sic] NaCl, 2 mM bME or 1 mM TCEP), 1 h on ice, gel at 4 C. Particulars: protein: recombinant; tags: C-terminal TEV site and His6; label: 5' HEX; hairpin with bulges.

The target of data set [9] is UPF2 MIF4G-D1-2 (UniProt Q9HAU5 120-757). Described as above. The following applies: protein: recombinant; tags: C-terminal TEV site and His6; label: 5' HEX; hairpin with bulges.
The target of data set [10] is UPF2 MIF4G-D1 (UniProt Q9HAU5 120-486). The data set is described as above. The following applies: protein: recombinant; tags: C-terminal TEV site and His6; label: 5' HEX; hairpin with bulges.
For data set [11], the target named is UPF2L;UPF3B (human?;human?, UniProt Q9HAU5;Q9BZI7 121-1227;41-262, |). Kind of data set: EMSA; higher affinity than UPF2L alone, lower than UPF3B; FA: 25 mM HEPES pH 7.45, 150 mM NaCl, 5% glycerol, 10 nM probe, temperature not stated; EMSA: 250 nM probe in 25 mM HEPES pH 7.45, 100 mM NaCl, 5% glycerol (protein dilution buffer 300 nM [sic] NaCl, 2 mM bME or 1 mM TCEP), 1 h on ice, gel at 4 C. The following applies: protein: recombinant;recombinant; tags: C-terminal TEV site and His6;; copies: 1;1; label: 5' HEX; hairpin with bulges.
UPF2L;UPF3B, sequence (Q9HAU5 121-1227, one chain of several): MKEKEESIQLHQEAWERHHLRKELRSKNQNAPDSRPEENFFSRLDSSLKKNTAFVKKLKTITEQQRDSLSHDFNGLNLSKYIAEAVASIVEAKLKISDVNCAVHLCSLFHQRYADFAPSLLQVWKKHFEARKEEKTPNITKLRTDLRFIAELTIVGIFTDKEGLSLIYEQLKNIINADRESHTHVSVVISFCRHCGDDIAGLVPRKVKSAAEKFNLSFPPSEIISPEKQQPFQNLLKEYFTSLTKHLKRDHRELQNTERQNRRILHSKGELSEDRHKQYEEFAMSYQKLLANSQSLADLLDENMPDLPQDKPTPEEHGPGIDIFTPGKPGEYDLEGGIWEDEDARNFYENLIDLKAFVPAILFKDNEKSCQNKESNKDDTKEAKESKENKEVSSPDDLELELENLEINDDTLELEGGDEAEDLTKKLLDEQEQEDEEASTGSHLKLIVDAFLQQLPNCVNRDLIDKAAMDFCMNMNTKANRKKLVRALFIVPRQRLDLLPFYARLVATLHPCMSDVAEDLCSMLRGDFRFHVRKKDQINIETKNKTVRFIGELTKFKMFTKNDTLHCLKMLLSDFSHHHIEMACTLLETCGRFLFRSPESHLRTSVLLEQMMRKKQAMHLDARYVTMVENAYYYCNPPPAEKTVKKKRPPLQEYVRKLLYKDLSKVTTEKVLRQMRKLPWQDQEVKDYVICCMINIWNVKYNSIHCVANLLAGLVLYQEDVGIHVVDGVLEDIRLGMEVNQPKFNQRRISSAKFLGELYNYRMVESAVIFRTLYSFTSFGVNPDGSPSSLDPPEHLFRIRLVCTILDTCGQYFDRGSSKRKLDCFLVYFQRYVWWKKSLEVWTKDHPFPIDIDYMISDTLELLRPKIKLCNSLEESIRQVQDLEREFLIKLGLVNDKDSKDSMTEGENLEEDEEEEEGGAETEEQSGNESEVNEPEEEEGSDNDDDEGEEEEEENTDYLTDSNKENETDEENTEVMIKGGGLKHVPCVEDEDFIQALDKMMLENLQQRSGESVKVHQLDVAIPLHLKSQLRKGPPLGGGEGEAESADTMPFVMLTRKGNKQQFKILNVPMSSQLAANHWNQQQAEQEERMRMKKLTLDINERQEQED

T1 sequence (Q9HAU5 121-1227): as the sequence (Q9HAU5 121-1227, one chain of several) above
UPF2 MIF4G-D2, sequence (Q9HAU5 455-757): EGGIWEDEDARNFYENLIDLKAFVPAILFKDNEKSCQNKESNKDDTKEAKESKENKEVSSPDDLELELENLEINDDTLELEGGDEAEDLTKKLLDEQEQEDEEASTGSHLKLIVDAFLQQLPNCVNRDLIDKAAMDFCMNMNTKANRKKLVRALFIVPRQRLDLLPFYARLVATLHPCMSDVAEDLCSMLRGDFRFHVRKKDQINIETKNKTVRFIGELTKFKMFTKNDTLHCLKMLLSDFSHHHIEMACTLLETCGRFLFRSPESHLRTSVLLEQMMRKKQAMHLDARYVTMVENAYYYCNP
UPF2L;UPF3B;UPF1, sequence (Q9HAU5 121-1227, one chain of several): as the sequence (Q9HAU5 121-1227, one chain of several) above
UPF2 MIF4G-D1-2, sequence (Q9HAU5 120-757): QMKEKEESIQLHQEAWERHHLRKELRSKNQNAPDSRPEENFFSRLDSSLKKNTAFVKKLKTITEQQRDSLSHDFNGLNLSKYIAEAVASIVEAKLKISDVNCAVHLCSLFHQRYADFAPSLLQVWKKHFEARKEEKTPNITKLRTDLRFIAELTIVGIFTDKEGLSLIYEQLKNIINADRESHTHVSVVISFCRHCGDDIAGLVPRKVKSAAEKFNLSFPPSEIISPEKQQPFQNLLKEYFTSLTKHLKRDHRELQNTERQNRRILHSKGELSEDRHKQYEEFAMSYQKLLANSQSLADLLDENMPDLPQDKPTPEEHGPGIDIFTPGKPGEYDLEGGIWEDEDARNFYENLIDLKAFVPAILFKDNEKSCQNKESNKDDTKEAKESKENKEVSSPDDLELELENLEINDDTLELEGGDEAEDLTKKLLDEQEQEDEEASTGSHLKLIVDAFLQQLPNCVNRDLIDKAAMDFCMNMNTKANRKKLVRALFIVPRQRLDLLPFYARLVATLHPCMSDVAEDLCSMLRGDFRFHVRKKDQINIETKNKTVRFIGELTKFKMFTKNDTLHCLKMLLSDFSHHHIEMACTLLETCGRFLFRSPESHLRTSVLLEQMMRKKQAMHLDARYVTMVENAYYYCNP
UPF2 MIF4G-D3;UPF3B, sequence (Q9HAU5 761-1054, one chain of several): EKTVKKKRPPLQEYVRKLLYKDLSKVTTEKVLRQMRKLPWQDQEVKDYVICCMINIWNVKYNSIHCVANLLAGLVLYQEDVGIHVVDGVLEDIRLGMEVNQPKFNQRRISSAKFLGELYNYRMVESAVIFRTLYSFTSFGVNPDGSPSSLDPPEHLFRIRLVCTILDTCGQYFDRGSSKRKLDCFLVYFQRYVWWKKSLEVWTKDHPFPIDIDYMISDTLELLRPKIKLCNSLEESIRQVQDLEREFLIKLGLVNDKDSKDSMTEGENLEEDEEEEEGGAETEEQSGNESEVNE
UPF2 MIF4G-D3, sequence (Q9HAU5 761-1054): as the sequence (Q9HAU5 761-1054, one chain of several) above
UPF2 MIF4G-D1, sequence (Q9HAU5 120-486): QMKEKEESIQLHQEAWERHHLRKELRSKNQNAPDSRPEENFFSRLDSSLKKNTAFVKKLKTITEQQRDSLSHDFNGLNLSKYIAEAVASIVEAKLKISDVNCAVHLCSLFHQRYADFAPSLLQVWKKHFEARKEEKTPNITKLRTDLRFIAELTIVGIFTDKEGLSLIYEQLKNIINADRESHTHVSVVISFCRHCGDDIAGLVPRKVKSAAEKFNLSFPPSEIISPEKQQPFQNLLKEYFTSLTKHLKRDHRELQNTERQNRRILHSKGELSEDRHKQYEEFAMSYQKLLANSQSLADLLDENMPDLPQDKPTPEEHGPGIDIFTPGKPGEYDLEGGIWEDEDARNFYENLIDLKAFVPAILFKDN

For the molecule CCCUGAGCUGACGCAGCACCUGGG (structured_RNA, 3' BHQ-1) [HEX_hp-RNA_BHQ molecular beacon], the binding result in data set [1] and in data set [2] was “binds” in each case.
Take CCCUGAGCUGACGCAGCACCUGGG (structured_RNA) [24 nt hp-RNA]: the binding result is given as “binds” in [3]; “binds” in data set [4]; “binds” in [5]; “binds” in data set [7]; “no binding” in [8]; “no binding” in data set [9]. Further, the binding result is “no binding” in data set [10] and “binds” in data set [11]. For the same molecule, the Kd (commonly the equilibrium constant for the complex coming apart) in data set [6] amounted to 0.223 µM.
